Source: patent US20260226503A1 (NORTH CAROLINA STATE UNIVERSITY, published 2026)
Where no end group is shown, it is not given here. Toyopearl AF‑Amino‑650M resin = chromatographic resin to which the peptide C-terminus is conjugated

B1: IWWHIAKFG-Toyopearl resin (peptide)
peptide: IWWHIAKFG-{Toyopearl AF‑Amino‑650M resin}
notes: Peptide immobilised on chromatographic resin; also called W3
B2: FWNWHHFKG-Toyopearl resin (peptide)
peptide: FWNWHHFKG-{Toyopearl AF‑Amino‑650M resin}
notes: Peptide immobilised on chromatographic resin; also called W4
B3: FFNFFKG-Toyopearl resin (peptide)
peptide: FFNFFKG-{Toyopearl AF‑Amino‑650M resin}
notes: Peptide immobilised on chromatographic resin; also called W10; FFNFFK-Toyopearl
B4: KWWIWAG-Toyopearl resin (peptide)
peptide: KWWIWAG-{Toyopearl AF‑Amino‑650M resin}
notes: Peptide immobilised on chromatographic resin; also called W8
B5: FWWAAFFKG-Toyopearl resin (peptide)
peptide: FWWAAFFKG-{Toyopearl AF‑Amino‑650M resin}
notes: Peptide immobilised on chromatographic resin; also called W5
B6: IKIFFFFSG-Toyopearl resin (peptide)
peptide: IKIFFFFSG-{Toyopearl AF‑Amino‑650M resin}
notes: Peptide immobilised on chromatographic resin; also called W7
B7: KFNHWFG-Toyopearl resin (peptide)
peptide: KFNHWFG-{Toyopearl AF‑Amino‑650M resin}
notes: Peptide immobilised on chromatographic resin; also called W1; KFNHWF-Toyopearl
B8: FNHFFIG-Toyopearl resin (peptide)
peptide: FNHFFIG-{Toyopearl AF‑Amino‑650M resin}
notes: Peptide immobilised on chromatographic resin; also called W11
B9: IAFKKISIG-Toyopearl resin (peptide)
peptide: IAFKKISIG-{Toyopearl AF‑Amino‑650M resin}
notes: Peptide immobilised on chromatographic resin; also called W6
B10: WKAHNKG-Toyopearl resin (peptide)
peptide: WKAHNKG-{Toyopearl AF‑Amino‑650M resin}
notes: Peptide immobilised on chromatographic resin; also called W2
B11: WWIKISG-Toyopearl resin (peptide)
peptide: WWIKISG-{Toyopearl AF‑Amino‑650M resin}
notes: Peptide immobilised on chromatographic resin; also called W9

target: AAV9 capsid (adeno-associated virus serotype 9); assay: bind-and-elute chromatography, pure AAV9; bound at pH 7.0, eluted with 1 M MgCl2 pH 6.0; ELISA

Binder | yield (AAV titer in elution fraction vs. load) [%]
B1 | 61.7
B2 | 43.9
B3 | 72.4
B4 | 57.2
B5 | 53.7

target: T1, AAV2 capsid (adeno-associated virus serotype 2, UniProt P03135 1-735; P03135 1-598; P03135 1-533); assay: dynamic binding capacity at 10% breakthrough; AAV2 in HEK293 lysate, 3.2e11 vp/mL, PBS pH 7.4, residence time 3 min
T1 construct: Whole assembled capsid, VP1:VP2:VP3 about 1:1:10; AF594-labelled in the library screen; GFP transgene in the lysate runs; a spherical cap of collated PDB structures in the docking; also called adeno-associated virus serotype 2

Binder | DBC10% (vp AAV per mL of resin)
B1 | 9.53e+12 vp AAV per mL of resin
B2 | 8.75e+12 vp AAV per mL of resin
B3 | 1.4e+13 vp AAV per mL of resin
B6 | 1.02e+13 vp AAV per mL of resin
B7 | 1.33e+13 vp AAV per mL of resin

target: T1, AAV2 capsid; assay: bind-and-elute chromatography, pure AAV2, non-competitive mode, pH 7.0; AAV titer by ELISA

Binder | loss (AAV titer in flow-through and wash vs. load) [%]
B8 | < 1.7
B9 | < 1.7
B1 | < 1.7
B2 | < 1.7
B10 | < 1.7
B3 | < 1.7
B4 | < 1.7
B6 | < 1.7
B7 | < 1.7
B5 | < 1.7
B11 | < 1.7

target: T1, AAV2 capsid; assay: bind-and-elute chromatography, pure AAV2; bound at pH 7.0, eluted with 1 M MgCl2 pH 6.0; ELISA

Binder | yield (AAV titer in elution fraction vs. load) [%]
B1 | 54.9
B10 | 79.8
B7 | 45
B5 | 44.8
